Legend:
[1] = tested on: CBCA, THCA, and CBDA production; CBGA residual substrate; assay: In vivo TS activity assay, Example 3 metagenomic CBCAS screen, cultures fed olivetolic acid; format: cell-based, S. cerevisiae; conditions: for Mean CBCA / Mean CBDA / Mean THCA: metagenomic CBCAS candidates in S. cerevisiae, secondary screen, quadruplicate; for Mean CBCA / Mean CBDA / Mean THCA / % CBCA / % CBDA / % THCA: fed 1 mM olivetolic acid; for Average CBGA residual substrate: olivetolic acid fed (Table 12); for % CBCA / % CBDA / % THCA: share of terminal cannabinoid product profile
Method: (§1) An assay to detect TS activity was conducted as follows: each thawed glycerol stock of candidate CBCAS transformants was stamped into a well of YEP+4% dextrose media. Samples were incubated at 30° C. in a shaking incubator for 2 days. A portion of each of the resulting cultures was stamped into a well of YEP+4% galactose+1 mM olivetolic acid (FIG. 1 Structure 6a). Samples were incubated at 20° C. and shaken in a shaking incubator for 4 days. Every 24 hours during those 4 days, 2% galactose and 1 mM olivetolic acid were spiked into the cultures. Sodium citrate buffer adjusted to pH 5.5 was added to each well at a final concentration of 100 mM. Samples were incubated at 20° C. and shaken in a shaking incubator for 2 days. A portion of each of the resulting production cultures was stamped into a well of phosphate buffered saline (PBS). Optical measurements were taken on a plate reader, with absorbance measured at 600 nm and fluorescence at 528 nm with 485 nm excitation. Samples were incubated at 30° C. in a shaking incubator for 2 days. 100% methanol was stamped into the production cultures in half-height deepwell plates. Plates were heat sealed and frozen. Samples were then thawed for 30 min and spun down at 4° C. A portion of the supernatant was stamped into half-area 96 well plates. CBCA, THCA, and CBDA production in the samples was quantified via liquid chromatography-mass spectrometry (LC-MS).
(§2) To explore whether other putative CBCASs may exist in the broader metagenome, a library of 1072 candidate CBCAS genes was designed using the A. niger CBCAS enzyme identified in Example 1 as a reference. Protein sequences were recoded in silico for expression in S. cerevisiae and synthesized in the integrative yeast expression vector shown in FIG. 5. Each candidate enzyme expression construct was transformed into an S. cerevisiae CEN.PK strain that also expressed a prenyltransferase enzyme capable of catalyzing reaction R^4 in FIG. 2. Strain t616313, expressing GFP, was included in the library screen as a negative control for enzyme activity. Strain t807925, expressing the A. niger enzyme identified in Example 1, was included in the library screen as a positive control for enzyme activity. All candidate enzymes in the library, as well as the enzyme expressed by positive control strain t807925, included an N-terminal MFalpha2 signal peptide (SEQ ID NO: 16) (with a methionine residue added at the N-terminus of the MFalpha2 signal peptide) and a C-terminal HDEL signal peptide (SEQ ID NO: 17).
The library of candidate CBCAS enzymes was assayed for activity in a primary high-throughput screen using the assay described in Example 1. Production of CBCA, THCA, and/or CBDA in the samples was quantified via LC-MS.
(§3) Based on results of the primary screen, 70 strains were carried forward to a secondary screen to confirm activity observed in the primary screen. The experimental protocol for the secondary screen was identical to the primary screen, except that additional technical replicates were included per strain, and replicate production cultures for each strain were separately fed 1 mM olivetolic acid or 1 mM divaric acid. All strains were screened in quadruplicate (FIGS. 10A-10C, Tables 10 and 11).

[2] = tested on: CBCVA, THCVA, and CBDVA production; CBGVA residual substrate; assay: In vivo TS activity assay, Example 3 metagenomic CBCAS screen, cultures fed divaric acid; format: cell-based, S. cerevisiae; conditions: for Average CBGVA residual substrate: divaric acid fed (Table 12); for Mean CBCVA / Mean CBDVA / Mean THCVA: secondary screen, S. cerevisiae, quadruplicate, LC-MS; for Mean CBCVA / Mean CBDVA / Mean THCVA / % CBCVA / % CBDVA / % THCVA: cultures fed 1 mM divaric acid; for % CBCVA / % CBDVA / % THCVA: share of terminal cannabinoid products
Method: as §1, §2, §3

CBCA production = assay: In vivo TS activity assay, Example 4 CBCAS enzymes with and without signal peptides, no pH adjustment; format: cell-based; conditions: strains with (Y) or without (N) N-terminal and C-terminal signal peptides; no pH adjustment at Day 4; S. cerevisiae
Method: as §1
A library of 20 CBCAS enzymes selected from Example 1 and 3 was synthesized, including versions of the CBCAS enzymes with and without the N-terminal MFalpha2 signal peptide (SEQ ID NO: 16) and C-terminal HDEL signal peptide (SEQ ID NO: 17). Each candidate enzyme expression construct was transformed into an S. cerevisiae CEN.PK strain that also expressed a prenyltransferase enzyme capable of catalyzing reaction R^4 in FIG. 2. Strain t861555 expressing the A. niger CBCAS identified in Example 1, carrying both the Mfalpha2 and HDEL signal peptides was included in the library screen as a positive control for enzyme activity. Strain t861565 expressed the same A. niger CBCAS without the Mfalpha2 and HDEL signal peptides.
The strains were screened using the assay described in Example 1 with the following exception: at Day 4 samples were not subjected to a pH adjustment and a further 2 days of incubation at 20° C.

Molecule | Mean CBCA [1] [µg/L] | Mean CBDA [1] [µg/L] | Mean THCA [1] [µg/L] | Average CBGA residual substrate [1] [µg/L] | % CBCA [1] [%] | % CBDA [1] [%] | % THCA [1] [%] | Average CBGVA residual substrate [2] [µg/L] | Mean CBCVA [2] [µg/L] | Mean CBDVA [2] [µg/L] | Mean THCVA [2] [µg/L] | % CBCVA [2] [%] | % CBDVA [2] [%] | % THCVA [2] [%] | Average CBCA (CBCA production) [µg/L]
t808240 (protein) MGNTTSIGVVRDCLTSAVGGVAAHVAFQDTLLYQTSAVKPYNLNVPVTPAAVTYPQSANEVAAIVKCASDYDYKVQARSGGHSFGNFGLGGQNGAIVIDMKHFSQFSMDESTFIATIGPGTTLGNLDTELYNAGNRAMAHGICPSIRTGGHLTVGGLGPTSRQWGLALDHVEEVEVVLANSSVVRASDTQNQDVLFAIKGAAASFGIVTEFKVRTEEAPGLAVRYSYSFNLGTPAEKAKLAKDWQAYIAQENLTWKFSSNLIIFDGQIILEGIFFGSKEEYDKLNLEKKFPTSEPGTVLVITNWLGMIGHALEDTILRLIGDSPTWFYAKSLGFTPNTLIFDSTIDEFFDYIHKANAGTLAWSVMLSLEGGAINAVPKNATAYGHRDVLFWVQIFVVNPLGPISQTTYGFTDGLYNILARGVPESAGHAYLGCPDPKMPDAQRAYWRNNYPRLEELKRDLDPKDIFHNPQGVRVAS | 6248.43 | 0.00 | 115.70 | 24393.82 | 98.18 | 0.00 | 1.82 | 4054.85 | 4282.13 | 0.00 | 888.75 | 82.81 | 0.00 | 17.19 | 
t808247 (protein) MGNTTSIAAGRDCLVSAVGPAHVTFQDALLYQTTAVDPYNLNIPVTPAAVTYPQSAEEIAAVVKCASDYDYKVQARSGGHSFGNYGLGGQNGAIVVDMKHFSQFSMDESTFVATIGPGTTLGDLDTELYNAGGRAMAHGICPTIRTGGHLTVGGLGPTARQWGLALDHIEEVEVVLANSSIVRASNTQNQDILFAVKGAAASFGIVTEFKVRTQEAPGLAVQYSFTFNLGSPAQKAKLVKDWQAFIAQENLSWKFYSNLVIFDGQIILEGIFFGSKEEYDELDLEKRFPTSEPGTVLVLTDWLGMIGHALEDTILKLVGDTPTWFYAKSLGFTPDTLIPDSAIDDFFDYIHKTNAGTLAWFVTLSLEGGAINSVSEDATAYGHRDVLFWFQVFVVNPLGPISQTTYDFTNGLYDVLAQAVPESAGHAYLGCPDPKMPDAQRAYWRSNLPRLEDLKGDLDPKDTFHNPQGVQVGP | 27052.63 | 420.85 | 1703.93 | 0.00 | 92.72 | 1.44 | 5.84 | 0.00 | 2651.55 | 15.16 | 1783.19 | 59.59 | 0.34 | 40.07 | 
t808253 (protein) MGNTTSIAAGRDCLVSAVGPAHVTFQDALLYQTTAVDPYNLNIPVTPAAVTYPQSAEEIAAVVKCASDYDYKVQARSGGHSFGNYGLGGQNGAIVVEMKHFSQFSMDESTFVATIGPGTTLGDLDTELYNTGGRAMAHGICPTIRTGGHLTVGGLGPTARQWGLALDHIEEVEVVLANSSIVRASNTQNQDILFAVKGAAASFGIVTEFKVRTQEAPGLAVQYSFTFNLGSAAQKAKLVKDWQAFIAQENLSWKFYSNLVIFDGQIILEGIFFGSKEEYDELDLEKRFPTSEPGTVLVLTDWLGMIGHGLEDTILKLVGDTPTWFYAKSLGFTPDTLIPDSAIDDFFDYIHKTNAGTLAWFVTLSLEGGAINSVSEDATAYGHRDVLFWFQVFVVNPLGPISQTTYDFTNGLYDVLAQAVPESAGHAYLGCPDPKMPDAQRAYWRSNLPRLEDLKGDLDPKDTFHNPQGVQVGP | 15518.14 | 63.99 | 916.93 | 0.00 | 94.05 | 0.39 | 5.56 | 0.00 | 1476.99 | 0.00 | 715.85 | 67.35 | 0.00 | 32.65 | 
t861555 (protein) MGNTTSIAGRDCLISALGGNSALAVFPNELLWTADVHEYNLNLPVTPAAITYPETAAQIAGVVKCASDYDYKVQARSGGHSFGNYGLGGADGAVVVDMKHFTQFSMDDETYEAVIGPGTTLNDVDIELYNNGKRAMAHGVCPTIKTGGHFTIGGLGPTARQWGLALDHVEEVEVVLANSSIVRASNTQNQDVFFAVKGAAANFGIVTEFKVRTEPAPGLAVQYSYTFNLGSTAEKAQFVKDWQSFISAKNLTRQFYNNMVIFDGDIILEGLFFGSKEQYDALGLEDHFAPKNPGNILVLTDWLGMVGHALEDTILKLVGNTPTWFYAKSLGFRQDTLIPSAGIDEFFEYIANHTAGTPAWFVTLSLEGGAINDVAEDATAYAHRDVLFWVQLFMVNPVGPISDTTYEFTDGLYDVLARAVPESVGHAYLGCPDPRMEDAQQKYWRTNLPRLQELKEELDPKNTFHHPQGVMPA |  |  |  |  |  |  |  |  |  |  |  |  |  |  | 21237.64
t861557 (protein) MLKTIAAVVFICSQAFLVRADLKSELTALGVGAVFPGDSVYTSDAKPYNLRFDFKPAAITFPNTPADVSQIVQIAGKYAHKVAPRGGGHSYISNGVGGMDNSIIADMSHFKSIVVHTNNDTATIETGNRLGDIALALFQYGRGMPHGACPYVGIGGHANFGGFGFISRSWGLTLDVVEAIDLVLANGTITTVSATQNPDLYWAMRGSGSSFGITTAIHVRTFSAPASGIIALDTWYLNLEQAVRALSSFQDFAHNTVTLPSYFGGEFVVNAGPSPGLLSITFFSGFWGPPNQYNSTLAPWKNSMPFPPNTTSYSQGNYIESLSARFGGAPLDTSLGPDNTDTFYVKSLIVPQVTISDEGAQVGISDKAWRALFQYLINEQPNLPVDWFIEVELWGGQNSAINAVPQASTAFAYRDLLWTLQMYSYTPNHQPPYPDAGFAFNDGMANSIIHNMPNGWNYGAYTNYVDNRLDDWQRLYYANHYPALQALKSRYDPSDTFSFPTSIELL |  |  |  |  |  |  |  |  |  |  |  |  |  |  | 520.64
t861559 (protein) MAPSISFSLLQISLLAYSGLVSGDFSLRQCLESAVSRVAFEGDPFYQLLSVRPYNLDISIVPAAVAFPADTNEVAAVVRCAAQNGYQVQAKSGGHSYANHGLGGTNGAVVVNLENLQHFSMNTTTWEATIGAGTLLGDVTKRLSDAGGRAMAHGTCPQVGSGGHFTIGGLGPSSRQFGAALDHIIEAEVVLANSSIIRASETENPDVFFAVRGAASGFGIVTEFKVRTEPEPGQAVRYSYSFSFSDTATRADLFKKWQAYVTQPDLPRELASTLTILEHGMFITGTFFGSKEEYNALKIETEFPGFAKGGTLVLDDWLGLVSNWAEDLLLSEEEIEQMFEYIDNVDKGTLLWFAIFDLQGGAVGDVPVDATAYAHRDTLIWLQSYAINLFGRISETTVEFLERLNELTLTSTAKTVPYAAYPGYVDPRLTDAQAAYWGSNLARLNRIKAEIDPNNVFHNPQSVRPASG |  |  |  |  |  |  |  |  |  |  |  |  |  |  | 0.00
